Data on 2 molecules can be found in paper PMC9440762, “Anti-Stokes fluorescence excitation reveals conformational mobility of the C-phycocyanin chromophores” (Structural Dynamics, 2022).

Data set [1] addresses T1, C-phycocyanin β subunit from Arthrospira platensis (Arthrospira platensis (Spirulina), UniProt P72508 1-172, phycocyanobilin covalently bound to the cysteines at positions 82 and 153).
T1 construct: C-phycocyanin β subunit, Arthrospira platensis (Spirulina); also called β C-PC chain
T1 sequence (looked up): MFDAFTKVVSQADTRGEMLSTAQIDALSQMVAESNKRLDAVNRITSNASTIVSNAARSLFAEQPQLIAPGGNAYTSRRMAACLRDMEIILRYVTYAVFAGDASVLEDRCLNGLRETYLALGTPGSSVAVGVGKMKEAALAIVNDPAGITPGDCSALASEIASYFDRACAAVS
Briefly: SEC; preparative Superdex 200 26/600, 20 mM Tris-HCl pH 7.6, 150 mM NaCl; fractions of the main peak analysed by SDS-PAGE. Particulars: both partners purified. Background: SEC sorts molecules by how far they enter the pores of the column.

Data set [2] concerns the molecule itself. Briefly: SAXS; C-PC in solution at 150 mM NaCl; fits with trimer and hexamer models, MW estimate, ab initio shape by GASBOR; also at 4, 6 and 8 M urea (decrease in the oligomeric state, partial dissociation of trimers).

B1: C-phycocyanin α subunit from Arthrospira platensis (natural protein)
chain: not shown
modifications: phycocyanobilin covalently bound to the cysteine at position 84
notes: C-phycocyanin α subunit, Arthrospira platensis (Spirulina); also called α C-PC chain
For B1, the binding result in data set [1] is reported as “binds”.

B2: C-phycocyanin αβ monomer (heterodimer of the α and β subunits) from Arthrospira platensis (complex)
chain 1: not shown
chain 2: MFDAFTKVVSQADTRGEMLSTAQIDALSQMVAESNKRLDAVNRITSNASTIVSNAARSLFAEQPQLIAPGGNAYTSRRMAACLRDMEIILRYVTYAVFAGDASVLEDRCLNGLRETYLALGTPGSSVAVGVGKMKEAALAIVNDPAGITPGDCSALASEIASYFDRACAAVS
modifications: phycocyanobilin covalently bound to the cysteine at position 84 | phycocyanobilin covalently bound to the cysteines at positions 82 and 153
notes: C-phycocyanin α subunit, Arthrospira platensis (Spirulina); band of apparent MW 16 or 18 kDa on SDS-PAGE; C-phycocyanin β subunit, Arthrospira platensis (Spirulina); The unit that associates with itself into the (αβ)3 trimer; Linker polypeptides are absent from the preparation; also called C-PC; PC
As to B2, in data set [2], the stoichiometry N – broadly, a count of units in the complex or per binding partner – is 3.
